According to patent US10982244B2, “Modified homoserine dehydrogenase and method for producing homoserine or L-amino acid derived from homoserine using the same” (CJ CHEILJEDANG CORPORATION, priority 2018, dated 2021):

Molecular target: T1, homoserine dehydrogenase (Hom) (Corynebacterium glutamicum, UniProt P08499, R407H)
T1 construct: each supernatant was recovered through two centrifugations (13,000 rpm, 4° C., 30 minutes) and used as a crude extract for measuring the activity of Hom; endogenous in cells; host or cells: Crude cell extracts of Corynebacterium glutamicum ATCC13032 (wild type) and of CA09-0900 (ATCC13032 with chromosomal hom R407H)
Assay: Measurement of Hom activity (U) and desensitization by L-threonine in crude extracts
Assay type: biochemical
Conditions: 10 mM L-threonine, compared with wild-type Hom
Description: The activity of the enzyme Hom was measured in the prepared strain. The wild-type strain ATCC13032 (the control group) and the CA09-0900 strain prepared in Example 4 were each inoculated into 25 mL of the seed medium and cultured until the strains reached the late log phase. The cells of each strain were recovered by centrifugation, washed twice with a 0.1 M potassium phosphate buffer (pH 7.6), and finally suspended in 2 mL of the same buffer containing glycerol at a concentration of 30%. Each cell suspension was physically disrupted by a conventional glass bead vortexing method for 10 minutes, and each supernatant was recovered through two centrifugations (13,000 rpm, 4° C., 30 minutes) and used as a crude extract for measuring the activity of Hom. For the measurement of the activity of Hom, a […] (0.1 mL) was added to a reaction solution for measuring the enzyme activity (a potassium phosphate (pH 7.0) buffer, 25 mM NADPH, 5 mM aspartate semi-aldehyde) and reacted at 30° C. The Hom enzyme activity U was defined as the number of NADPH consumed per minute according to the presence of L-threonine (0 mM, 10 mM), and the measurement results of the enzyme activity are shown in Table 2 below.

B1: Hom including the R407H modification: modified homoserine dehydrogenase, arginine at position 407 substituted with histidine (protein)
chain: MTSASAPSFNPGKGPGSAVGIALLGFGTVGTEVMRLMTEYGDELAHRIGGPLEVRGIAVSDISKPREGVAPELLTEDAFALIEREDVDIVVEVIGGIEYPREVVLAALKAGKSVVTANKALVAAHSAELADAAEAANVDLYFEAAVAGAIPVVGPLRRSLAGDQIQSVMGIVNGTTNFILDAMDSTGADYADSLAEATRLGYAEADPTADVEGHDAASKAAILASIAFHTRVTADDVYCEGISNISAADIEAAQQAGHTIKLLAICEKFTNKEGKSAISARVHPTLLPVSHPLASVNKSFNAIFVEAEAAGRLMFYGNGAGGAPTASAVLGDVVGAARNKVHGGRAPGESTYANLPIADFGETTTRYHLDMDVEDRVGVLAELASLFSEQGISLRTIRQEERDDDAHLIVVTHSALESDLSRTVELLKAKPVVKAINSVIRLERD
modifications: homoserine dehydrogenase R407H
notes: modified homoserine dehydrogenase, arginine at position 407 substituted with histidine
  desensitization to L-threonine: the inhibition of the activity was reduced
